Assay results from article PMC10157173.

Legend:
[1] = target: Tag-free recombinant human HER3 ECD (Homo sapiens (Human).) (UniProt P21860); assay: ELISA; sandwich ELISA for bispecificity: tag-free EGFR, HER2 or HER3 coated at 1000 ng/ml in PBS; dilutions of BiXAb™ in PBS, 37°C, 1 h; then 1000 ng/ml of the His-tagged second receptor, 37°C, 1 h; detected with peroxidase-conjugated anti-His tag antibody
[2] = target: Tag-free recombinant human EGFR (Homo sapiens (Human).) (UniProt P00533); assay: as above

- EC50 [1]: 0.55 nM
- EC50 [2]: 170 nM
Substance: BiXAb™ 3Patri-1Matu-Fc (bispecific antibody)
